Reference: patent US20260258146A1 (Regeneron, published 2026)
Each block holds one binder with its values, some of them ahead of it.

Columns and labels:
Assay in all cases: cell-based or functional assay
[1] = molecular target: T1, human CD28 on human primary CD3+ T cells (human, UniProt P10747 19-220)
[2] = molecular target: T1, human CD28 on human primary CD3+ T cells; remark: listed apart in the source
[3] = molecular target: T1, human CD28 on human primary CD3+ T cells; remark: listed apart in the source
[4] = molecular target: T1, human CD28 on human primary CD3+ T cells; remark: listed apart in the source

- EC50 IL2 release; T cells + HEK293/hCD20/hCD38; bsAb7945 + IgG4^P [1]: 41.4 nM
- EC50 IL2 release; T cells + HEK293/hCD20/hCD38; bsAb7945 + TAAxCD3 [1]: 0.00502 nM
- EC50 IL2 release; T cells + MOLP8; bsAb7945 + IgG4^P [1]: 0.00971 nM
- EC50 IL2 release; T cells + NALM-6/hPD-L1; bsAb7945 + Cemiplimab [2]: 0.143 nM
- EC50 IL2 release; T cells + NALM-6/hPD-L1; bsAb7945 + IgG4^P [2]: 0.169 nM
- EC50 IL2 release; T cells + NALM-6; bsAb7945 + Cemiplimab [2]: 0.0981 nM
- EC50 IFNγ release; T cells + HEK293/hCD20/hCD38; bsAb7945 + TAAxCD3 [3]: 0.123 nM
- EC50 IFNγ release; T cells + MOLP8; bsAb7945 + TAAxCD3 [3]: 0.00424 nM
- EC50 T-cell proliferation; T cells + HEK293/hCD20/hCD38; bsAb7945 + IgG4^P [4]: 45.6 nM
- EC50 T-cell proliferation; T cells + HEK293/hCD20/hCD38; bsAb7945 + TAAxCD3 [4]: 0.000894 nM
B1: bsAb7945 (bispecific antibody, human IgG4 S228P, kappa)
heavy 1: QVQLVQSGAEVKKPGSSVKVSCKASGGPFRSSSFSWVRQAPGQGLEWMGGIIPILGKTNYAQKFQGRITIVTDESTTTVYMELSSLRSEDTAVFYCVRGSSLFDYWGQGTLVTVSSASTKGPSVFPLAPCSRSTSESTAALGCLVKDYFPEPVTVSWNSGALTSGVHTFPAVLQSSGLYSLSSVVTVPSSSLGTKTYTCNVDHKPSNTKVDKRVESKYGPPCPPCPAPPVAGPSVFLFPPKPKDTLMISRTPEVTCVVVDVSQEDPEVQFNWYVDGVEVHNAKTKPREEQFNSTYRVVSVLTVLHQDWLNGKEYKCKVSNKGLPSSIEKTISKAKGQPREPQVYTLPPSQEEMTKNQVSLTCLVKGFYPSDIAVEWESNGQPENNYKTTPPVLDSDGSFFLYSRLTVDKSRWQEGNVFSCSVMHEALHNHYTQKSLSLSLGK
heavy 2: QVQLQESGPGLVKPSETLSLTCTVSGGSISSYYWSWIRQPPGKGLEWIGYIYYSGITHYNPSLKSRVTISVDTSKIQFSLKLSSVTAADTAVYYCARWGVRRDYYYYGMDVWGQGTTVTVSSASTKGPSVFPLAPCSRSTSESTAALGCLVKDYFPEPVTVSWNSGALTSGVHTFPAVLQSSGLYSLSSVVTVPSSSLGTKTYTCNVDHKPSNTKVDKRVESKYGPPCPPCPAPPVAGPSVFLFPPKPKDTLMISRTPEVTCVVVDVSQEDPEVQFNWYVDGVEVHNAKTKPREEQFNSTYRVVSVLTVLHQDWLNGKEYKCKVSNKGLPSSIEKTISKAKGQPREPQVYTLPPSQEEMTKNQVSLTCLVKGFYPSDIAVEWESNGQPENNYKTTPPVLDSDGSFFLYSRLTVDKSRWQEGNVFSCSVMHEALHNRFTQKSLSLSPGK
light: not shown

- EC50 IL2 release; T cells + HEK293/hCD20/hCD38; bsAb6031 + TAAxCD3 [1]: 0.199 nM
- EC50 IL2 release; T cells + MOLP8; bsAb6031 + IgG4^P [1]: 0.653 nM
- EC50 IL2 release; T cells + MOLP8; bsAb6031 + TAAxCD3 [1]: 1.02 nM
- EC50 IL2 release; T cells + NALM-6/hPD-L1; bsAb6031 + Cemiplimab [2]: 4.39 nM
- EC50 IL2 release; T cells + NALM-6/hPD-L1; bsAb6031 + IgG4^P [2]: 2.64 nM
- EC50 IL2 release; T cells + NALM-6; bsAb6031 + Cemiplimab [2]: 2.44 nM
- EC50 IL2 release; T cells + NALM-6; bsAb6031 + IgG4^P [2]: 1.68 nM
- EC50 IFNγ release; T cells + HEK293/hCD20/hCD38; bsAb6031 + TAAxCD3 [3]: 0.294 nM
- EC50 IFNγ release; T cells + MOLP8; bsAb6031 + TAAxCD3 [3]: 0.748 nM
- EC50 T-cell proliferation; T cells + HEK293/hCD20/hCD38; bsAb6031 + TAAxCD3 [4]: 0.143 nM
- EC50 T-cell proliferation; T cells + MOLP8; bsAb6031 + IgG4^P [4]: 0.467 nM
B2: bsAb6031 (bispecific antibody, human IgG4 S228P, kappa)
heavy 1: EVQLVESGGGLVQPGRSLRLSCAASGFTFDDYAMHWVRQAPGKGLEWVSGISWKSDNIGYADSVKGRFTISRDNAKNSLYLQMNSLRAEDTALYYCAKALGGWKFDYYYGMDVWGQGTTVTVSSASTKGPSVFPLAPCSRSTSESTAALGCLVKDYFPEPVTVSWNSGALTSGVHTFPAVLQSSGLYSLSSVVTVPSSSLGTKTYTCNVDHKPSNTKVDKRVESKYGPPCPPCPAPPVAGPSVFLFPPKPKDTLMISRTPEVTCVVVDVSQEDPEVQFNWYVDGVEVHNAKTKPREEQFNSTYRVVSVLTVLHQDWLNGKEYKCKVSNKGLPSSIEKTISKAKGQPREPQVYTLPPSQEEMTKNQVSLTCLVKGFYPSDIAVEWESNGQPENNYKTTPPVLDSDGSFFLYSRLTVDKSRWQEGNVFSCSVMHEALHNHYTQKSLSLSLGK
heavy 2: EVQLVESGGGLVQPGGSLRLSCAASGFTFSRNNMHWVRQAPGKGLEYVSGISSNGGRTYYADSVKGRFTISRDNSKNTLYLQMGGLRAADMAVYFCTRDDELLSFDYWGQGTLVTVSSASTKGPSVFPLAPCSRSTSESTAALGCLVKDYFPEPVTVSWNSGALTSGVHTFPAVLQSSGLYSLSSVVTVPSSSLGTKTYTCNVDHKPSNTKVDKRVESKYGPPCPPCPAPPVAGPSVFLFPPKPKDTLMISRTPEVTCVVVDVSQEDPEVQFNWYVDGVEVHNAKTKPREEQFNSTYRVVSVLTVLHQDWLNGKEYKCKVSNKGLPSSIEKTISKAKGQPREPQVYTLPPSQEEMTKNQVSLTCLVKGFYPSDIAVEWESNGQPENNYKTTPPVLDSDGSFFLYSRLTVDKSRWQEGNVFSCSVMHEALHNRFTQKSLSLSPGK
light: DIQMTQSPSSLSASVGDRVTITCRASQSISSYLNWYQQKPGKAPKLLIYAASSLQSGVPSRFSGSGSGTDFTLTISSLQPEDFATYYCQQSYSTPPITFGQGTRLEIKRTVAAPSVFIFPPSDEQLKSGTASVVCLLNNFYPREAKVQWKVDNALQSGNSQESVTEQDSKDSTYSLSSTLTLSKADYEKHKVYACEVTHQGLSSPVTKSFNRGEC
